Results: article doi:10.1101/2025.11.10.687702

Legend:
Rab7A(QL)-6xHis (human) = Rab7A(QL)-6xHis (human) (UniProt P51149); assay: liposome flotation; purified VPS13C construct with SUVs (84.8% POPC, 10% POPE, 5% DGS-NTA, 0.2% Rhodamine-PE) to which His-tagged Rab7A(QL) or ATG7 was tethered; 1 mM GTP, 2 mM Mg2+, room temperature 20 min; OptiPrep gradient, top fraction on SDS-PAGE
[1] = target: human Rab7A-Q67L with an N-terminal Strep tag (human) (UniProt P51149); assay: pull-down; Strep-Rab7A(Q67L) and FLAG-tagged VPS13C constructs co-expressed in Expi293F; lysate in buffer A with 1 mM GTP and 2 mM MgCl2 on Strep-Tactin XT resin, 2 h at 4 °C, eluted with 50 mM biotin; SDS-PAGE with Coomassie stain and/or anti-FLAG western blot
Sequence of human Rab7A-Q67L with an N-terminal Strep tag (human) (P51149 whole entry Q67L): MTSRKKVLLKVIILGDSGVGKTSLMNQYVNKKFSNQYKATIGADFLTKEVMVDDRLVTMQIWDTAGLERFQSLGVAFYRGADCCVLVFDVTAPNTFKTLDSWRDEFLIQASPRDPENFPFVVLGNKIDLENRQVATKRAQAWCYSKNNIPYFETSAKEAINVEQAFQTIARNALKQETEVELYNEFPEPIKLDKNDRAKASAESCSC

Sequence of Rab7A(QL)-6xHis (human) (P51149 whole entry Q67L): as above
Sequence of VPS13C lacking the amphipathic helices of the ATG2_C motif, C-terminal 3xFLAG (Q709C8 whole entry): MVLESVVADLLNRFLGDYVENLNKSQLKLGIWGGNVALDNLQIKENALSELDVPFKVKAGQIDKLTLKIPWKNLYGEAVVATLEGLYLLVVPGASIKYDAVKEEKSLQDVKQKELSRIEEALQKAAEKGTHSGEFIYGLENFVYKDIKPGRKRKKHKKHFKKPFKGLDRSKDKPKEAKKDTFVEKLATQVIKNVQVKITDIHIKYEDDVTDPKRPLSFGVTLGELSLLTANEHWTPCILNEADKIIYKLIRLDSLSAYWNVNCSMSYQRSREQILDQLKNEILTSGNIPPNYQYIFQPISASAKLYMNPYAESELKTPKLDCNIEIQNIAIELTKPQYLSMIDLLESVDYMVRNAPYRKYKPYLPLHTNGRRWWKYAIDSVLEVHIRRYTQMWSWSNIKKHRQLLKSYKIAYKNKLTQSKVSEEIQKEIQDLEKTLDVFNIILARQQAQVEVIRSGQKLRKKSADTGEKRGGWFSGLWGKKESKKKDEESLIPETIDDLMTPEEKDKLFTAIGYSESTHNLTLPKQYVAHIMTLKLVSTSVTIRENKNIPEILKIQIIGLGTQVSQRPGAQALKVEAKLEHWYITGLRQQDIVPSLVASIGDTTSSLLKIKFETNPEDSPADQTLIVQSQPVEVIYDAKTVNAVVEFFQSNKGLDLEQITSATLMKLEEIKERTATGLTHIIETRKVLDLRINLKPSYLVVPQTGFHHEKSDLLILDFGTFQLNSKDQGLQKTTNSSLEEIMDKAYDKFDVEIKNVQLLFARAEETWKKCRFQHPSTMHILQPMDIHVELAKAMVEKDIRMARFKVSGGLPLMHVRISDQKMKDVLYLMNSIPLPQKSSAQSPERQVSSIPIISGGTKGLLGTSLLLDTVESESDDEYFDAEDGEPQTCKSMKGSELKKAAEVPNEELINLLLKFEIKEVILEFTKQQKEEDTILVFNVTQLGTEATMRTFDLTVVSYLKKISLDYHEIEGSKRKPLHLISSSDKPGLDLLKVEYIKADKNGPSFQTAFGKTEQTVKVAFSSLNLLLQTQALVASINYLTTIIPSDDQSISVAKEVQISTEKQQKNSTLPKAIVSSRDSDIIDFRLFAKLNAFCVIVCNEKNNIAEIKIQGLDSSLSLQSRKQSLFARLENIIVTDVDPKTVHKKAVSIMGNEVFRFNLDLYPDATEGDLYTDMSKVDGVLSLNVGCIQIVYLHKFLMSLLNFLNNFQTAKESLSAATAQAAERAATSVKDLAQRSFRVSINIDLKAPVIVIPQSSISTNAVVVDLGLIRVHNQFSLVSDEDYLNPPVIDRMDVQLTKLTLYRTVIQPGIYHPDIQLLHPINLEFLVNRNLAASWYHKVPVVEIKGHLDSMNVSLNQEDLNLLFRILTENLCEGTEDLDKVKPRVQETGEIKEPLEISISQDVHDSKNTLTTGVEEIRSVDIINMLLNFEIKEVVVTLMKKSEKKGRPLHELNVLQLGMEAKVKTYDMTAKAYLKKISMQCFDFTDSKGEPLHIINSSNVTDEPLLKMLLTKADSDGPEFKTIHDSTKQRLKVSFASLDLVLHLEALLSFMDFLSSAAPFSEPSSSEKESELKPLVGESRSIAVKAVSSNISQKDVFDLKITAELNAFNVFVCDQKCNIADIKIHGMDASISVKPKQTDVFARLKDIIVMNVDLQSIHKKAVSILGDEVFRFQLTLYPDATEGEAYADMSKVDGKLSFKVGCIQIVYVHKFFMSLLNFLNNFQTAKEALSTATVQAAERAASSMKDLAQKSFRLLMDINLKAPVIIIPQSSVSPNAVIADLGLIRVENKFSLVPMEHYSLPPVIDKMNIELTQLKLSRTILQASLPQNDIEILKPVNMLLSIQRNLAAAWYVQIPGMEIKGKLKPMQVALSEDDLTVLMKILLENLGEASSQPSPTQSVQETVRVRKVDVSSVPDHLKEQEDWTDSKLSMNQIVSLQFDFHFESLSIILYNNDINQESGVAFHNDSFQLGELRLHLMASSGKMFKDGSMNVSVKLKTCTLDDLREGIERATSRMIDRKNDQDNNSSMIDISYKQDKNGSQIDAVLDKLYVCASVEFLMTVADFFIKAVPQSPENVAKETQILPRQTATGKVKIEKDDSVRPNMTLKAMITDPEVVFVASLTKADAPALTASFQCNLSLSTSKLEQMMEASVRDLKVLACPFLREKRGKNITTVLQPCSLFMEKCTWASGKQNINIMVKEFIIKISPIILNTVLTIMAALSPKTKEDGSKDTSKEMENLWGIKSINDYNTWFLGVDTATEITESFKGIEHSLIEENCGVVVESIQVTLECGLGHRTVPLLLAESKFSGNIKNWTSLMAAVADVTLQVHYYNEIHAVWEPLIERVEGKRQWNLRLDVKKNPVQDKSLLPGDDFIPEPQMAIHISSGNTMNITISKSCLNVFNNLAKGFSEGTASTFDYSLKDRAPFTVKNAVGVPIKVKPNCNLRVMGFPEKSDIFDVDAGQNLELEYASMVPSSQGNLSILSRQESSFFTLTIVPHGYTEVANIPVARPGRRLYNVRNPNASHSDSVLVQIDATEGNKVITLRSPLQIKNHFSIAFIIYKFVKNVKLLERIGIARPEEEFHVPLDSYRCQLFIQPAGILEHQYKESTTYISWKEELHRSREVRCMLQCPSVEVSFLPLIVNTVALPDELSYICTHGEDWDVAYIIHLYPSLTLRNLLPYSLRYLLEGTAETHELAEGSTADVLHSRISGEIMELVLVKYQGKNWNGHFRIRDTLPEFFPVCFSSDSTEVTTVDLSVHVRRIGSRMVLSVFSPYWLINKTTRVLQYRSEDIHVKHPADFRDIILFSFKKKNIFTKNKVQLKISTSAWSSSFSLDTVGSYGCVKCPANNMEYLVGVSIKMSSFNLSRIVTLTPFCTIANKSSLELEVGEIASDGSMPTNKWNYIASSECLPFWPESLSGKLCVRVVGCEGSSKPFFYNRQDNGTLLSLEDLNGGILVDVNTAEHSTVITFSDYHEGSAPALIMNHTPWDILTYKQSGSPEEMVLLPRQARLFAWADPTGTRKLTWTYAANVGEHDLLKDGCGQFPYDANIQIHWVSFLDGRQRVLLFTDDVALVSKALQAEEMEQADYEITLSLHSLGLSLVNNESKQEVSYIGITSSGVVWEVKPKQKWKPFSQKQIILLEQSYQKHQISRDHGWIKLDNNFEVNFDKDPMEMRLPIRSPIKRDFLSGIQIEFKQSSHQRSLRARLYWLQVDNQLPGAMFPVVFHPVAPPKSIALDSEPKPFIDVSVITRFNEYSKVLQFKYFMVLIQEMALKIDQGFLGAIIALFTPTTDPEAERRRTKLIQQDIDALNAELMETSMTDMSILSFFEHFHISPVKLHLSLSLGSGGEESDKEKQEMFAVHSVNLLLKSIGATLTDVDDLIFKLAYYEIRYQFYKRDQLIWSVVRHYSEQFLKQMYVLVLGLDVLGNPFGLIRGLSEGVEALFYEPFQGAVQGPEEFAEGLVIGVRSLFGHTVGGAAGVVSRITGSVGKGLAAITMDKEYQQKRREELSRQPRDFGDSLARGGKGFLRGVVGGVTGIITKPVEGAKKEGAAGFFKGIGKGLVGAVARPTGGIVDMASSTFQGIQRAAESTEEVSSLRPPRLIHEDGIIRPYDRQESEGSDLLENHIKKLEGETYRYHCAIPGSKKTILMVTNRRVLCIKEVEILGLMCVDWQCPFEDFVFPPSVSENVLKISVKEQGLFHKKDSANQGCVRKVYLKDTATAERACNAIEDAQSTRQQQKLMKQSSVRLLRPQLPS

Row | percent co-floated with SUVs bearing His-tagged Rab7A (Rab7A(QL)-6xHis (human)) | fraction of total overexpressed VPS13C retained by Rab7(Q67L) [1] | Substance
1 | > 80% | – | VPS13C lacking the amphipathic helices of the ATG2_C motif, C-terminal 3xFLAG (from UniProt Q709C8 1-3753) (natural protein)
2 | – | 5% | full-length human VPS13C with a C-terminal 3xFLAG tag, Q709C8 1-3753
